The values below are quoted from earlier work in paper PMC5427221.

The data set concerns the target C3b C3b (Homo sapiens) (UniProt P01024).
Sequence of UniProt P01024 (P01024 566-670): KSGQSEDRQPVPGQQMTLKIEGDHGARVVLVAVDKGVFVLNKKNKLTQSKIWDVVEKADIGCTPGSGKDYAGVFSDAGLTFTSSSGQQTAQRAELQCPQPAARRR

Consider Factor H FH[1-4] (from UniProt P08603), for which the equilibrium dissociation constant (Kd) (usually the concentration at which binding is half-saturated) was 10 µM.
